From article PMC4335299 (Genes & Development, 2015)
Numbering of substitutions follows the chain as printed. Names and notes keep the numbering of the source. Where two headings read alike, the source gives them in different places.

How the values were obtained:
[1] = biological target: Bacillus megaterium TnrA, full length (Bacillus megaterium); assay: crystal structure
[2] = biological target: Bacillus subtilis GlnK, wild type (Bacillus subtilis); assay: crystal structure
[3] = biological target: Bacillus subtilis GlnK, wild type (Bacillus subtilis); assay: SAXS
[4] = biological target: Bacillus subtilis TnrA, full length (Bacillus subtilis) (UniProt Q45666); assay: ITC
[5] = biological target: T1, Bacillus subtilis glutamine synthetase, wild type, full length (Bacillus subtilis, UniProt P12425 1-444); assay: crystal structure
T1 sequence (looked up): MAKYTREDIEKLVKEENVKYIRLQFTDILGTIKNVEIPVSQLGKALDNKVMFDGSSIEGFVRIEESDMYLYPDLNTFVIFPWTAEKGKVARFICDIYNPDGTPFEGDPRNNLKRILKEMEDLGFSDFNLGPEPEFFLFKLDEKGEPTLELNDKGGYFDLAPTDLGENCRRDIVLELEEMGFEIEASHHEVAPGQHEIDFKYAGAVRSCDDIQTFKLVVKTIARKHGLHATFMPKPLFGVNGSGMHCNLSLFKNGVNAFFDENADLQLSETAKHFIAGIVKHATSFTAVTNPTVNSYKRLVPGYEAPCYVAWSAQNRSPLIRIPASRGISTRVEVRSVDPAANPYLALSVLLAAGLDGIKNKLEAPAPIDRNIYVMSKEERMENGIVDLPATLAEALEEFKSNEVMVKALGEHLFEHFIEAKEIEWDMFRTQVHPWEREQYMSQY

GS(E424K) = biological target: T2, GS(E424K) (Bacillus subtilis, UniProt P12425 1-444, E424K); assay: fluorescence polarisation
T2 sequence (looked up): T1 sequence (looked up) with E424K

crystal structure = biological target: the molecule itself; assay: crystal structure
[6] = biological target: T1, Bacillus subtilis glutamine synthetase, …; assay: crystal structure; remark: listed apart in the source
TnrA [7] = biological target: T3, TnrA (Bacillus subtilis, UniProt Q45666 1-110); assay: fluorescence polarization
T3 sequence: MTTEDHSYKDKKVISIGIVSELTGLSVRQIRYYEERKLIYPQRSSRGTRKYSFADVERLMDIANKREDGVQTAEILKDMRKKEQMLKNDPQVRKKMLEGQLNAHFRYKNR

GlnRΔ18 = biological target: T4, GlnRΔ18 (Bacillus subtilis, UniProt P37582 1-117, del118-135); assay: fluorescence polarization
T4 sequence: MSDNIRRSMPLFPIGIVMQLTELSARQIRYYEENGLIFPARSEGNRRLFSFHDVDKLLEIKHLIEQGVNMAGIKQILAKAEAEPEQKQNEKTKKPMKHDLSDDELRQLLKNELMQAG

GlnR FL = biological target: T5, GlnR FL (Bacillus subtilis, UniProt P37582 1-135); assay: fluorescence polarization
T5 sequence: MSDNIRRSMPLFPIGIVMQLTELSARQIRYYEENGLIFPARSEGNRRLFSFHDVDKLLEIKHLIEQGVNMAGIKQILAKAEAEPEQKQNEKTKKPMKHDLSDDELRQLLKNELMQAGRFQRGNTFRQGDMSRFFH

TnrA;GlnK = biological target: T6, TnrA;GlnK (Bacillus subtilis;Bacillus subtilis, UniProt Q45666;Q07428 1-110;1-116, |); assay: SAXS
T6 sequence 1: T3 sequence
T6 sequence 2: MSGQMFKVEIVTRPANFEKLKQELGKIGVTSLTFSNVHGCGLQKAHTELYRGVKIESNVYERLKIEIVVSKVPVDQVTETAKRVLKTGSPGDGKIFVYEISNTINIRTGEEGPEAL

TnrA [8] = biological target: T7, TnrA (Bacillus megaterium, UniProt G2RUZ1 1-108); assay: X-ray crystallography
T7 sequence: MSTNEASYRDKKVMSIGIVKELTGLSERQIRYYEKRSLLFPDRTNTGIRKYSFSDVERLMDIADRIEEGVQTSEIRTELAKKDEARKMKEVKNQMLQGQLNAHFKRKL

Bacillus megaterium TnrA, full length (natural protein)
stoichiometry N [1]: 2

Bacillus subtilis GlnK, wild type (natural protein)
stoichiometry N [2]: 3 | stoichiometry N [3]: 3 | stoichiometry N (GlnK subunit per TnrA subunit) [4]: 0.5

EILKDMRKKEQMLKNDPQVRKKMLEGQLNAHFRYKNR (domain or fragment, Bacillus subtilis, UniProt Q45666 74-110, looked up) [TnrA(74–110)]
binding result [5]: binds

B1: TnrA(K108E) (natural protein, Bacillus subtilis, UniProt Q45666 1-110, looked up)
chain: T3 sequence with K108E
binding result (GS(E424K)): binds

B2: GlnRΔ18 (domain or fragment, Bacillus subtilis, UniProt P37582 1-117, looked up)
chain: T4 sequence
stoichiometry N (crystal structure): 2

RFQRGNTFRQGDMSRFFH [GlnR C-terminal peptide]
binding result [6]: binds

B3: 17mer FP (dsDNA)
DNA 1: TGTAAGATTTCCTGACA
DNA 2: TGTCAGGAAATCTTACA
Kd (TnrA [7]): 15.7 ± 0.9 nM | Kd (GlnRΔ18): 8.1 ± 0.3 nM

B4: 21mer FP (dsDNA)
DNA 1: CGTGTAAGATTTCCTGACACG
DNA 2: CGTGTCAGGAAATCTTACACG
Kd (TnrA [7]): 11.6 ± 1.8 nM | Kd (GlnRΔ18): 6 ± 0.9 nM | binding signal (GlnR FL): > 10 fold weaker than GlnRΔ18

B5: 17mer SAXS (dsDNA)
DNA 1: TGTCAGATAATCTGACA
DNA 2: TGTCAGATTATCTGACA
binding result (TnrA;GlnK): binds

B6: 21mer site (crystal) (dsDNA)
DNA 1: CGTGTAAGATTTCCTGACACG
DNA 2: CGTGTCAGGAAATCTTACACG
binding result (TnrA [8]): binds
